# In US20240343800A1 (Merck KGaA, published 2024):
# Legend:
# human ROR1 (on cells) [1] = molecular target: T1, human ROR1 (on cells) (human, UniProt Q01973 30-937); assay: cell-based or functional assay
# human ROR1 (on cells) [2] = molecular target: T1, human ROR1 (on cells); assay: cell-based or functional assay; remark: listed apart in the source
# human ROR1 (on cells) [3] = molecular target: T1, human ROR1 (on cells); assay: cell-based or functional assay; remark: listed apart in the source
# human ROR1 (on cells) [4] = molecular target: T1, human ROR1 (on cells); assay: cell-based or functional assay; remark: listed apart in the source
# human ROR1 (on cells) [5] = molecular target: T1, human ROR1 (on cells); assay: cell-based or functional assay; remark: listed apart in the source
# human ROR1 (on cells) [6] = molecular target: T1, human ROR1 (on cells); assay: cell-based or functional assay; remark: listed apart in the source
# human ROR1 (on cells) [7] = molecular target: T1, human ROR1 (on cells); assay: cell-based or functional assay; remark: listed apart in the source
# [8] = molecular target: T2, mouse ROR1 (on 4T1 cells engineered to overexpress it) (mouse, UniProt Q9Z139 30-937); assay: cell-based or functional assay
# human ROR1 (on cells) [9] = molecular target: T1, human ROR1 (on cells); assay: cell-based or functional assay; remark: listed apart in the source
# [10] = molecular target: T2, mouse ROR1 (on 4T1 cells engineered to …); assay: cell-based or functional assay; remark: listed apart in the source
# [11] = molecular target: T3, human CD3 (on Jurkat T cells or human CD8+ T cells) (human, UniProt P07766 23-207; P09693 23-182; P04234 22-171; P20963 22-164); assay: flow cytometry, Jurkat T cells
# T3 construct: Entries are printed with signal peptides; also called huCD3; CD3ε
# T3 sequence (P07766 23-207 limits assumed, chain 1 of 4): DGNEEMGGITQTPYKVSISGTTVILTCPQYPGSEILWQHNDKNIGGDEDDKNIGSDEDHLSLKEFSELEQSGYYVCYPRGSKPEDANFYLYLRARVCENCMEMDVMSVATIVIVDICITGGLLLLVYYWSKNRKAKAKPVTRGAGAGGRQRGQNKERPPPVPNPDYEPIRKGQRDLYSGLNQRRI
# T3 sequence (P09693 23-182 limits assumed, chain 2 of 4): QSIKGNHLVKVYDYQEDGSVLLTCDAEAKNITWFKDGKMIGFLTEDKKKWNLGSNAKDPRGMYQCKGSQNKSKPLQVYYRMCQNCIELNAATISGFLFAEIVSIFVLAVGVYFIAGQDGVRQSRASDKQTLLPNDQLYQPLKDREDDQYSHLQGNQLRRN
# T3 sequence (P04234 22-171 limits assumed, chain 3 of 4): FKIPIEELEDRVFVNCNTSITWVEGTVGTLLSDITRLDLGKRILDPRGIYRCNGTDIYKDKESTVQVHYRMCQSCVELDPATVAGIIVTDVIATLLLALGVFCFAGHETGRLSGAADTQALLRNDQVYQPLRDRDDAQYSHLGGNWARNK
# T3 sequence (P20963 22-164 limits assumed, chain 4 of 4): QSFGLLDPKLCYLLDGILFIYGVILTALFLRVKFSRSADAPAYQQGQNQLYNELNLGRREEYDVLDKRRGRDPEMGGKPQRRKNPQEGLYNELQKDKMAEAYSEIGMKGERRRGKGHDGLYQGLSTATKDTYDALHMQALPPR
# Protocol: (§1) After washing twice with 200 μL of phosphate buffered saline (PBS) by centrifugation at 500×g for 5 minutes at room temperature, the cells were resuspended in 100 μL of Live/Dead fixable green working buffer (ThermoFisher Scientific, Cat No: L23101; one vial of Live/Dead fixable green powder was dissolved into 50 μL of DMSO and 1 μL of dissolved Live/Dead fixable green was added to 1 mL of PBS to prepare the working buffer). After 15-minutes of incubation at room temperature, the cells were washed twice with 200 μL of PBS by centrifugation at 500×g for 5 minutes at room temperature and resuspended in […] of 10% goat serum in BD staining buffer (BD Biosciences, Cat No: 554657). […] The plates were then covered with foil to avoid direct light and incubated for 60 minutes at 4° C. […] After incubating for 30 minutes at 4° C., the cells were washed twice with 200 μL of PBS by centrifugation at 500×g for 5 minutes at room temperature and resuspended into 100 μL of fixation buffer (BioLegend, Cat No: 420801). The samples were then analyzed on a flow cytometer for binding signal using FlowJo software. ROR and CD3 binding EC₅₀s (concentration vs mean fluorescence intensity (MFI)) for reference molecules and test bispecific TCEs were obtained using 4-parameter non-linear regression curve fitting in GraphPad Prism.
# human ROR1 (on cells) [12] = molecular target: T1, human ROR1 (on cells); assay: flow cytometry, MDA-MB-231 cells
# Protocol: as §1
# [13] = molecular target: T4, cynomolgus CD3 (on cynomolgus pan-T cells) (cynomolgus, UniProt Q95LI5 22-198); assay: flow cytometry, cynomolgus pan-T cells
# T4 construct: whole, on cells
# T4 sequence (Q95LI5 22-198): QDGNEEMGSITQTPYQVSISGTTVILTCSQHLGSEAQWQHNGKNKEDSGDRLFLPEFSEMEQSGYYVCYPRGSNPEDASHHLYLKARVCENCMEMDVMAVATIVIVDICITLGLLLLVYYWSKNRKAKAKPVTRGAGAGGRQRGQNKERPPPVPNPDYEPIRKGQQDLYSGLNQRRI
# Protocol: as §1
# human ROR1 (on cells) [14] = molecular target: T1, human ROR1 (on cells); assay: flow cytometry, 4T1 cells overexpressing human ROR1
# [15] = molecular target: T2, mouse ROR1 (on 4T1 cells engineered to …); assay: flow cytometry, 4T1 cells overexpressing mouse ROR1
# [16] = molecular target: T3, human CD3 (on Jurkat T cells or human …); assay: flow cytometry, human CD8+ T cells
# Outline: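 Cells stained with test and reference bispecific TCEs, incubated 60 min at 4 °C protected from light, then 30 min at 4 °C further staining, washed and fixed before flow cytometry. Binding EC₅₀ from concentration vs MFI by 4-parameter non-linear regression.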
# [17] = molecular target: T5, chimeric CD3ε of human CD3 knock-in C57BL/6 mice (ectodomain of human CD3, transmembrane and cytosolic … (human; mouse, UniProt P07766 23-126; P22646 109-189); assay: flow cytometry, T cells of huCD3 knock-in C57BL/6 mice
# T5 construct: extracellular domain;domain: transmembrane and cytosolic domains; On T cells isolated from the knock-in mice; also called human/mouse chimeric CD3; huCD3 knock-in
# T5 sequence (P07766 other isoform, or with tags, fused parts or gaps mutant): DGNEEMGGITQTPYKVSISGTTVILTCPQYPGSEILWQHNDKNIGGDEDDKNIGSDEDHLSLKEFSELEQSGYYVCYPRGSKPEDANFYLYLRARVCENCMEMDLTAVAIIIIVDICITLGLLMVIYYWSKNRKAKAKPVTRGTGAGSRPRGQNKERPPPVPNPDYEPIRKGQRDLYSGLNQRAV
# Protocol: (§2) The plates were then covered with foil to avoid direct light and incubated for 60 minutes at 4° C. […] After incubating for 30 minutes at 4° C., the cells were washed twice with 200 μL of PBS by centrifugation at 500×g for 5 minutes at room temperature and resuspended into 100 μL of fixation buffer (BioLegend, Cat No: 420801). The samples were then analyzed on a flow cytometer for binding signal using FlowJo software. ROR and CD3 binding EC₅₀s (concentration vs mean fluorescence intensity (MFI)) for reference molecules and test bispecific TCEs were obtained using 4-parameter non-linear regression curve fitting in GraphPad Prism.
# [18] = molecular target: T3, human CD3 (on Jurkat T cells or human …); assay: flow cytometry; reference: 69A02 and 82H02 TCEs in Format 1A
# Protocol: as §2
# [19] = molecular target: T3, human CD3 (on Jurkat T cells or human …); assay: flow cytometry; reference: 69A02 and 82H02 TCEs in Format 1B
# Protocol: as §2
# [20] = molecular target: T3, human CD3 (on Jurkat T cells or human …); assay: flow cytometry, human CD8+ T cells; reference: 82H02 TCE #1 and #3
# Protocol: as §2, with “After 15-minutes of incubation at room temperature, the cells were washed twice with 200 μL of PBS by centrifugation at 500×g for 5 minutes at room temperature and resuspended in […] of 10% goat serum in BD staining buffer (BD Biosciences, Cat No: 554657). […] The plates” for “The plates”
binder,measurement,setting,value
bispecific TCE 82H02 in Format 1B (bispecific antibody) chain 1: EIVLTQSPATLSLSPGERATLSCRASQSVSSYLAWYQQKPGQAPRLLIYDASNRATGIPARFSGSGSGTDFTLTISSLEPEDFAVYYCQQRSNWPPCTFGQGTRLEIKGGGGSGGGGSGGGGSGGGGSEVQLLESGGGLVQPGGSLRLSCAASGFTFTSYAMSWVRQAPGKGLEWVSTISGSGGGTYYTDSVKGRFTISRDNSKNTLYLQMNSLRAEDTAVYYCAQGSSIFDYWGQGTLVTVSSEPKSSDKTHTCPPCPAPEAAGGPSVFLFPPKPKDTLMISRTPEVTCVVVDVSHEDPEVKFNWYVDGVEVHNAKTKPREEQYNSTYRVVSVLTVLHQDWLNGKEYKCKVSNKALGAPIEKTISKAKGQPFRPEVHLLPPSREEMTKNQVSLTCLARGFYPKDIAVEWESNGQPENNYKTTPSRQEPSQGTTTFAVTSKLTVDKSRWQQGNVFSCSVMHEALHNHYTQKTISLSPGKGGGGSGGGGSGGGGSGGGGSEVQLVESGGGLVQPGGSLRLSCAASGFTFNTYAMNWVRQAPGKGLEWVARIRSKYNNYATYYADSVKDRFTISRDDSKNTLYLQMNSLRAEDTAVYYCVRHGNFGNSYVSWFAYWGQGTMVTVSSASTKGPSVFPLAPSSKSTSGGTAALGCLVKDYFPEPVTVSWNSGALTSGVHTFPAVLQSSGLYSLSSVVTVPSSSLGTQTYICNVNHKPSNTKVDKKVEPKSC chain 2: EIVLTQSPATLSLSPGERATLSCRASQSVSSYLAWYQQKPGQAPRLLIYDASNRATGIPARFSGSGSGTDFTLTISSLEPEDFAVYYCQQRSNWPPCTFGQGTRLEIKGGGGSGGGGSGGGGSGGGGSEVQLLESGGGLVQPGGSLRLSCAASGFTFTSYAMSWVRQAPGKGLEWVSTISGSGGGTYYTDSVKGRFTISRDNSKNTLYLQMNSLRAEDTAVYYCAQGSSIFDYWGQGTLVTVSSEPKSSDKTHTCPPCPAPEAAGGPSVFLFPPKPKDTLMISRTPEVTCVVVDVSHEDPEVKFNWYVDGVEVHNAKTKPREEQYNSTYRVVSVLTVLHQDWLNGKEYKCKVSNKALGAPIEKTISKAKGQPREPQVYTLPPPSEELALNELVTLTCLVKGFYPSDIAVEWLQGSQELPREKYLTWAPVLDSDGSFFLYSILRVAAEDWKKGDTFSCSVMHEALHNHYTQKSLDRSPGK chain 3: QAVVTQEPSLTVSPGGTVTLTCRSSTGAVTTSNYANWVQQKPGQAPRGLIGGTNKRAPGTPARFSGSLLGGKAALTLSGVQPEDEAEYYCALWYSNLWVFGGGTKLTVLGQPKAAPSVTLFPPSSEELQANKATLVCLISDFYPGAVTVAWKADSSPVKAGVETTTPSKQSNNKYAASSYLSLTPEQWKSHRSYSCQVTHEGSTVEKTVAPTECS,"EC50 of target cell killing (TDCC), human CD8+ T cells + ROR1+ MDA-MB-231",human ROR1 (on cells) [1],58.1 pM
same,"EC50 of IFNγ release, human CD8+ T cells + ROR1+ MDA-MB-231",human ROR1 (on cells) [2],88.9 pM
same,"TDCC EC50, cynomolgus CD8+ T cells + ROR1+ MDA-MB-231",human ROR1 (on cells) [3],54.8 pM
same,"TDCC EC50, human CD8+ T cells + ROR1+ MDA-MB-231",human ROR1 (on cells) [3],23.7 pM
same,"IFNγ release EC50, cynomolgus CD8+ T cells + ROR1+ MDA-MB-231",human ROR1 (on cells) [4],191 pM
same,"IFNγ release EC50, human CD8+ T cells + ROR1+ MDA-MB-231",human ROR1 (on cells) [4],104 pM
same,"TDCC EC50, PBMCs + ROR1+ MDA-MB-231 cells",human ROR1 (on cells) [5],76.6 pM
same,"IFNγ release EC50, PBMCs + ROR1+ MDA-MB-231 cells",human ROR1 (on cells) [6],7.12 nM
same,"TDCC EC50, hCD3 KI splenocytes: hROR1+ 4T1 cells",human ROR1 (on cells) [7],185 pM
same,"TDCC EC50, hCD3 KI splenocytes: mROR1+ 4T1 cells",[8],21.5 pM
same,"IFNγ release EC50, hCD3 KI splenocytes: hROR1+ 4T1 cells",human ROR1 (on cells) [9],> 300 pM
same,"IFNγ release EC50, hCD3 KI splenocytes: mROR1+ 4T1 cells",[10],140 pM
same,EC50,[11],67.3 nM
same,EC50,human ROR1 (on cells) [12],2.23 nM
same,EC50,[13],34.9 nM
same,EC50,human ROR1 (on cells) [14],0.7 nM
same,EC50,[15],2.01 nM
"bispecific reference T cell-binder (bispecific antibody, ROR1 x CD3 bispecific of four polypeptides) light: ELVLTQSPSVSAALGSPAKITCTLSSAHKTDTIDWYQQLQGEAPRYLMQVQSDGSYTKRPGVPDRFSGSSSGADRYLIIPSVQADDEADYYCGADYIGGYVFGGGTQLTVLGQPKAAPSVTLFPPSSEELQANKATLVCLISDFYPGAVTVAWKADSSPVKAGVETTTPSKQSNNKYAASSYLSLTPEQWKSHKSYSCQVTHEGSTVEKTVAPTECS heavy 1: not shown heavy 2: QEQLVESGGRLVTPGGSLTLSCKASGFDFSAYYMSWVRQAPGKGLEWIATIYPSSGKTYYATWVNGRFTISSDNAQNTVDLQMNSLTAADRATYFCARDSYADDGALFNIWGPGTLVTISSASTKGPSVFPLAPSSKSTSGGTAALGCLVKDYFPEPVTVSWNSGALTSGVHTFPAVLQSSGLYSLSSVVTVPSSSLGTQTYICNVNHKPSNTKVDKKVEPKSCDKTHTCPPCPAPEAAGGPSVFLFPPKPKDTLMISRTPEVTCVVVDVSHEDPEVKFNWYVDGVEVHNAKTKPREEQYNSTYRVVSVLTVLHQDWLNGKEYKCKVSNKALGAPIEKTISKAKGQPREPQVCTLPPSRDELTKNQVSLSCAVKGFYPSDIAVEWESNGQPENNYKTTPPVLDSDGSFFLVSKLTVDKSRWQQGNVFSCSVMHEALHNHYTQKSLSLSPGK QAVVTQEPSLTVSPGGTVTLTCGSSTGAVTTSNYANWVQEKPGQAFRGLIGGTNKRAPGTPARFSGSLLGGKAALTLSGAQPEDEAEYYCALWYSNLWVFGGGTKLTVLSSASTKGPSVFPLAPSSKSTSGGTAALGCLVKDYFPEPVTVSWNSGALTSGVHTFPAVLQSSGLYSLSSVVTVPSSSLGTQTYICNVNHKPSNTKVDKKVEPKSC",EC50,[11],157 nM
same,EC50,[16],266 nM
same,EC50,[17],259 nM
same,fold lower apparent binding affinity,[18],~15 fold
same,fold lower apparent binding affinity,[19],~4 fold
same,fold lower affinity,[20],~100 fold
